Experimental data taken from patent US20150024955.

B1: FLAG-tagged human HDAC7, phosphorylated (from DO11.10-HDAC7-Flag cells treated with PMA or anti-CD3) (protein)
chain: MDLRVGQRPPVEPPPEPTLLALQRPQRLHHHLFLAGLQQQRSVEPMRLSMDTPMPELQVGPQEQELRQLLHKDKSKRSAVASSVVKQKLAEVILKKQQAALERTVHPNSPGIPYRTLEPLETEGATRSMLSSFLPPVPSLPSDPPEHFPLRKTVSEPNLKLRYKPKKSLERRKNPLLRKESAPPSLRRRPAETLGDSSPSSSSTPASGCSSPNDSEHGPNPILGSEADSDRRTHPTLGPRGPILGSPHTPLFLPHGLEPEAGGTLPSRLQPILLLDPSGSHAPLLTVPGLGPLPFHFAQSLMTTERLSGSGLHWPLSRTRSEPLPPSATAPPPPGPMQPRLEQLKTHVQVIKRSAKPSEKPRLRQIPSAEDLETDGGGPGQVVDDGLEHRELGHGQPEARGPAPLQQHPQVLLWEQQRLAGRLPRGSTGDTVLLPLAQGGHRPLSRAQSSPAAPASLSAPEPASQARVLSSSETPARTLPFTTGLIYDSVMLKHQCSCGDNSRHPEHAGRIQSIWSRLQERGLRSQCECLRGRKASLEELQSVHSERHVLLYGTNPLSRLKLDNGKLAGLLAQRMFVMLPCGGVGVDTDTIWNELHSSNAARWAAGSVTDLAFKVASRELKNGFAVVRPPGHHADHSTAMGFCFFNSVAIACRQLQQQSKASKILIVDWDVHHGNGTQQTFYQDPSVLYISLHRHDDGNFFPGSGAVDEVGAGSGEGFNVNVAWAGGLDPPMGDPEYLAAFRIVVMPIAREFSPDLVLVSAGFDAAEGHPAPLGGYHVSAKCFGYMTQQLMNLAGGAVVLALEGGHDLTAICDASEACVAALLGNRVDPLSEEGWKQKPNLNAIRSLEAVIRVHSKYWGCMQRLASCPDSWVPRVPGADKEEVEAVTALASLSVGILAEDRPSEQLVEEEEPMNL
B2: myosin phosphatase (complex of PP1β and MYPT1) (protein)
chain 1: ADGELNVDSLITRLLEVRGCRPGKIVQMTEAEVRGLCIKSREIFLSQPILLELEAPLKICGDIHGQYTDLLRLFEYGGFPPEANYLFLGDYVDRGKQSLETICLLLAYKIKYPENFFLLRGNHECASINRIYGFYDECKRRFNIKLWKTFTDCFNCLPIAAIVDEKIFCCHGGLSPDLQSMEQIRRIMRPTDVPDTGLLCDLLWSDPDKDVQGWGENDRGVSFTFGADVVSKFLNRHDLDLICRAHQVVEDGYEFFAKRQLVTLFSAPNYCGEFDNAGGMMSVDETLMCSFQILKPSEKKAKYQYGGLNSGRPVTPPRTANPPKKR
chain 2: MKMADAKQKRNEQLKRWIGSETDLEPPVVKRQKTKVKFDDGAVFLAACSSGDTDEVLKLLHRGADINYANVDGLTALHQACIDDNVDMVKFLVENGANINQPDNEGWIPLHAAASCGYLDIAEFLIGQGAHVGAVNSEGDTPLDIAEEEAMEELLQNEVNRQGVDIEAARKEEERVMLRDARQWLNSGHISDVRHAKSGGTALHVAAAKGYTEVLKLLIQAGYDVNIKDYDGWTPLHAAAHWGKEEACRILVDNLCDMETVNKVGQTAFDVADEDILGYLEELQKKQTLLHSEKRDKKSPLIESTANMENNQPQKAFKNKETLIIEPEKNASRIESLEHEKADEEEEGKKDESSCSSEEDEEDDSESEAETDKTKPMASVSNAHTSSTQAAPAAVTAPTLSSNQGTPTSPVKKFPISTTKISPKEEERKDESPASWRLGLRKTGSYGALAEISASKEAQKEKDTAGVMRSASSPRLSSSLDNKEKEKDNKGTRLAYVTPTIPRRLASTSDIEEKENRESSSLRTSSSYTRRKWEDDLKKNSSINEGSTYHRSCSFGRRQDDLISCSVPSTTSTPTVTSAAGLQRSLPSSTSTAAKTPPGSSSAGTQSSTSNRLWAEDSTEKEKDSAPTAVTIPVAPTVVNAAAPSTTTLTTTTAGTVSEVRERRRSYLTPVRDEESESQRKARSRQARQSRRSTQGVTLTDLQEAEKTIGRSRSTRTREQENEEKEKEEKEKQDKEKQEEKKESEASREDEYKQKYSRTYDETYTRYRPVSTSSSSAPSSSSLSTLGSTLYASSQLNRPNSLVGITSAYSRGLAKENEREGEKKEEEKEGEDKSQPKSIRERRRPREKRRSTGVSFWTQDSDENEQERQSDTEDGSSKRETQTDSVSRYDSSSTSSSDRYDSLLGRSASYSYLEDRKPYSSRLEKDDSTDFKKLYEQILAENEKLKAQLHDTNMELTDLKLQLEKATQRQERFADRSQLEMEKRERRALERRISEMEEELKMLPDLKADNQRLKDENGALIRVISKLSK

What was measured:
[1] = target: mixture of recombinant PP1 isoforms (α, β, and γ; Upstate)

HDAC7-GFP fusion protein, sequence (Q8C2B3 whole entry, the tested form may be a part): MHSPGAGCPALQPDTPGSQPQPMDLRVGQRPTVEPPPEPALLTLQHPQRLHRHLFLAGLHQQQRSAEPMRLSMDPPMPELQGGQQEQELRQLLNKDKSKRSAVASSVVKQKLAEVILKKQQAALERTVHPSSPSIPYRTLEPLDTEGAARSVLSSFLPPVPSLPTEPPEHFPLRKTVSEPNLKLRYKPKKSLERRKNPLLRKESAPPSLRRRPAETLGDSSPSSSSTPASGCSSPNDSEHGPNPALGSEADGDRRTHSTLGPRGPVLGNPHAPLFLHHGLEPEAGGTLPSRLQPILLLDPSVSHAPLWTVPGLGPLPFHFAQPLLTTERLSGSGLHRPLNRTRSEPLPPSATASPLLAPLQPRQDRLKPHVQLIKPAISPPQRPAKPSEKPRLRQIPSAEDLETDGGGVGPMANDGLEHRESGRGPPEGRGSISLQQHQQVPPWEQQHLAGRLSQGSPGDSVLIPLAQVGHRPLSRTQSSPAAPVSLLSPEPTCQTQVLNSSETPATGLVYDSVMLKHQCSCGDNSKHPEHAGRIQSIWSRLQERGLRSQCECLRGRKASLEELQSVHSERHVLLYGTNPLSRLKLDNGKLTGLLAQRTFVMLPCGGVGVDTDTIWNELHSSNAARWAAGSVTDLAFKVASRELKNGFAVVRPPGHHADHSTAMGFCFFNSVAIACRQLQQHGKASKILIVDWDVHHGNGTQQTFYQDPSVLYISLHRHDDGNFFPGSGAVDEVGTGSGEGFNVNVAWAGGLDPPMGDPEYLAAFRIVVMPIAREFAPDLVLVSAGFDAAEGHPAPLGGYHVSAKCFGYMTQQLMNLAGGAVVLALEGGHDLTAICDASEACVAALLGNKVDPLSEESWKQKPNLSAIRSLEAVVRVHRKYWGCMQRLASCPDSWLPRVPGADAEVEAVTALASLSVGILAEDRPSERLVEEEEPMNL

Row | Protein | in vitro dephosphorylation assay (30 minutes at 30° C.), Western blot with phospho HDAC7 antibodies [1] | nuclear exclusion of HDAC7-GFP after siRNA knockdown of myosin phosphatase subunits (immunofluorescence microscopy) (HDAC7-GFP fusion protein)
1 | B1 | recombinant PP1 treatment totally abolished the reactivity to the different phospho HDAC7 antibodies | 
2 | B2 |  | HDAC7 nuclear re-entry was significantly delayed at later time points
